Source: patent publication US20240360206A1 (ALZPATH, published 2024)

T1: Peptide C (none)
T1 construct: only Peptide C; also called WZN-1C; T217
T1 peptide: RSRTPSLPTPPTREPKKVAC

T2: Peptide D (phosphothreonine at position 4 of the peptide (pT212 by the filing's name))
T2 construct: also called WZN-1D; pT212
T2 peptide: RSRTPSLPTPPTREPKC

T3: Peptide A (phosphothreonine at position 9 of the peptide (pT217 by the filing's name))
T3 construct: also called WZN-1A; pT217a
T3 peptide: RSRTPSLPTPPTREPKC

T4: Peptide B (phosphothreonine at position 6 of the peptide (pT217 by the filing's name))
T4 construct: also called WZN-1B; pT217b
T4 peptide: TPSLPTPPTREPKKVAC


Assays:
full length Tau (Tau441) = target: T5, full length Tau (Tau441) (UniProt P10636-8 1-441); assay: indirect ELISA on Tau441, antibody titrated
T5 construct: also called synthetic full length Tau

Peptide C = target: T1, Peptide C; assay: indirect ELISA, peptide coated on the plate, HRP goat anti-rabbit antibody, TMB, read at 650 nm; axes without titles
Method: (§1) Antibodies were generated and purified. The antibodies were assayed using a standard indirect ELISA protocol. Briefly, peptide antigens corresponding to SEQ ID NOs: 74-81 were diluted to 1 μg/ml in PBS and plated onto a Greiner Bio One Microlon 96 well plate. Peptide antigens were produced by the manufacturer Abcam. WZN-1A and WZN-1B served as targets. WZN-1C, WZN-1D, WZN-1E, WZN-1F, WZN-1G, and WZN-1H served as negative controls. In the peptide antigen sequences, a phosphorylated residue is indicated by (pT) for phosphorylated threonine or (pS) for phosphorylated serine. After blocking with 1% BSA in PBS pH 7.4, antibodies were serially diluted 1 to 4 with an initial concentration of 1 μg/ml. After incubation, unbound antibodies were washed off with 1×TBST and HRP labeled goat anti-rabbit secondary antibody was applied according to the manufacturer's instructions. Subsequently, unbound secondary antibody was washed off with 1×TBST and 3,3′5,5′-tetramethylbenzidine (TMB) was applied for 5 minutes at room temperature and plates were read at 650 nm. Data is seen in FIG. 3.

Peptide D = target: T2, Peptide D; assay: as above
Method: as §1

Peptide A = target: T3, Peptide A; assay: as above
Method: as §1

Peptide B = target: T4, Peptide B; assay: as above
Method: as §1

T5 sequence (P10636 other isoform, or with tags, fused parts or gaps limits assumed): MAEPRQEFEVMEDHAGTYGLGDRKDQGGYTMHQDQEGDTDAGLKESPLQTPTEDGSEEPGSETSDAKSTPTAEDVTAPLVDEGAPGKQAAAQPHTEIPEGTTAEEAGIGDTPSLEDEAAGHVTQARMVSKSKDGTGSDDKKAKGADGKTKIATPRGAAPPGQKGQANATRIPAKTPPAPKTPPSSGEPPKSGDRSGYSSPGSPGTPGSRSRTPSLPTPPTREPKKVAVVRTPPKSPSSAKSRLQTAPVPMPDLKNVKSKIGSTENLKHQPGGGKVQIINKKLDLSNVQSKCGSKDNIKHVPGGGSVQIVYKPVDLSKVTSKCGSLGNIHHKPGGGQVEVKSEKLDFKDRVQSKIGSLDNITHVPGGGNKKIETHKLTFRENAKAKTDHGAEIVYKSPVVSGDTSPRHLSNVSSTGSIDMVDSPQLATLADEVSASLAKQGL

binding result (Peptide C)	binding result (full length Tau (Tau441))	Binder	other results
no binding	no binding (tested: 10^4 ng/mL)	Antibody 2 (antibody, V domains shown, Rabbit monoclonal antibody; also called 30H10L2) VH: QSVEESGGRLVTPGTPLTLTCTVSGFSLSSYAMIWVRQAPGKGLEWIGFISRSGITYYASWAKGRFTISKTSTTVDLKMTSLTTEDTATYFCAREFGAVGSDYYRDAFNLWGPGTLVTVSS VL: DIVMTQTPASVEAAVGGTVTINCQASESINSWLSWYQQKPGQPPNLLIYRASTLASGVPSRFSGGGSGTEYTLTISDLECADAVTYYCQSYYEEDGIGYAFGGGTEVVVEG	–
no binding	no binding (tested: 10^4 ng/mL)	Antibody 5 (antibody, V domains shown, Rabbit monoclonal antibody; also called 62H10L7) VH: QSVEESGGGLVTPGGTLTLTCTVSGFSLSNYAMSWVRQAPGKGLEWIGFISRSGITYYASWAKGRFTISKTSTTVDLKITSPTTEDTAAYFCAREFGAVGSDYYRDALRLWGPGTLVTVSS VL: DIVMTQTPSSVSAAVGGTVTIKCQASQSIGSNLAWYQQKPGQPPKLLIYGASTLESGVPSRFKGSGSGTEYTLTISDLECADAATYYCQSYYEGSDIGYAFGGGTEVVVEG	–

The remaining lines, values behind:

Binder	binding result (Peptide C)	binding result (full length Tau (Tau441))	other results
PT3 (antibody, V domains shown) VH: EVKLVESGGDLVKPGGSLKLSCAASGFTFSSYAMSWVRQNPEKRLEWVASISKGGNTYYPNSVKGRFTISRDNARNILYLQMSSLRSEDTALYYCARGWGDYGWFAYWGQVTLVTVSA VL: DIKMTQSPSSMYASLGERVTITCKASQDINRYLNWFQQKPGKSPKTLIYRANRLLDGVPSRFSGSGSGQDYSLTISSLDYEDMGIYYCLQYDEFPLTFGDGTKLELK	–	–	EC50 (read off the curve) (full length Tau (Tau441)): ~0.2 µg/mL
Antibody 1 (antibody, V domains shown) VH: QSLEESGGRLVTPGTPLTLTCTVSGFSLSSQKVGWVRQAPGKGLEWIGIINNYGSTYYASWAKGRFTISKTSTTVDLRITSLTAEDTATYFCARDPDGSIVFDIWGPGTLVTVSL VL: AQVLTQTASPVSAAVGGTVTINCQSSQSVVYNNRLSWFQQKPGQPPKLLIYGASTLASGVPSRFKGSGSGTQFTLTISDVQCDDAATYYCLGSYDCSSGDCHAFGGGTEVVVKG	no binding	–	–
Antibody 4 (antibody, V domains shown) VH: QSLEESGGRLVTPGTPLTLTCTVSGFSLNNYKVGWVRQAPGKGLEWIGIINYYSQTYYASWAKGRFTISKTSTTVDLKLTSPTTEDTATYFCARDPDGSIVFDIWGPGTLVTVSL VL: AQVLTQTASPVSAAVGSTVTINCQSSQSVYSNKRLAWFQLKPGQPPKLLIYGASTLASGVPSRFKGSGSGTQFTLTISDVQCDDAATYYCAGGYDCSTGDCWTFGGGTEVVVTG	no binding	–	–
Antibody 6 (antibody, V domains shown, Rabbit monoclonal antibody; also called 71H1L2) VH: QSLEESGGRLVTPGTPLTLTCTVSGIDLSTHAMTWVRQAPGKGLEWIGVINPSGSAYYATWVNGRFTISKTSTTVDLKITSPTTGDTAKYFCARDYITAGDYYMDAFDPWGPGTLVTVSS VL: DIVMTQTPASVSAAVGGTVTIKCQASQSISNQLSWYQQKSGQPPKLLIYRASTLASGVPSRFKGSGSGTEFTLTISDLECADAATYYCQQGYNRDNVDNLFGGGTEVVVKG	no binding	no binding (tested: 10^4 ng/mL)	–
Antibody 3 (antibody, V domains shown) VH: QSVEESGGRLVTPGTPLTLTCTVSGFSLSSYAMIWVRQAPGKGLEWIGFISRSGITYYASWAKGRFTISKTSTTVDLKMTSLTTEDTATYFCAREFGAVGSDYYRDAFNLWGPGTLVTVSS VL: DIVMTQTPSSVSAAVGGTVTINCQASQNIYSNLAWYQQKPGQRPRLLIYGASNLASGVPSRFKGSRSGTEFTLTISDLECADAATYYCQGYDYSTAGAYPFGGGTAVVVKG	no binding	–	binding result (Peptide D): no binding; binding result (Peptide A): no binding; binding result (Peptide B): no binding
